Substitutions are numbered along the chain they refer to. Bounds are passed on as bounds.

This note sets out measurements from patent US20230303695A1 (SHANGHAI XBH BIOTECHNOLOGY, published 2023).

Experiment [1] concerns the target T1, IGSF8 extracellular domain (ED) (Homo sapiens (Human), UniProt Q969P0 28-579).
T1 construct: also called IGSF8 ECD
T1 sequence: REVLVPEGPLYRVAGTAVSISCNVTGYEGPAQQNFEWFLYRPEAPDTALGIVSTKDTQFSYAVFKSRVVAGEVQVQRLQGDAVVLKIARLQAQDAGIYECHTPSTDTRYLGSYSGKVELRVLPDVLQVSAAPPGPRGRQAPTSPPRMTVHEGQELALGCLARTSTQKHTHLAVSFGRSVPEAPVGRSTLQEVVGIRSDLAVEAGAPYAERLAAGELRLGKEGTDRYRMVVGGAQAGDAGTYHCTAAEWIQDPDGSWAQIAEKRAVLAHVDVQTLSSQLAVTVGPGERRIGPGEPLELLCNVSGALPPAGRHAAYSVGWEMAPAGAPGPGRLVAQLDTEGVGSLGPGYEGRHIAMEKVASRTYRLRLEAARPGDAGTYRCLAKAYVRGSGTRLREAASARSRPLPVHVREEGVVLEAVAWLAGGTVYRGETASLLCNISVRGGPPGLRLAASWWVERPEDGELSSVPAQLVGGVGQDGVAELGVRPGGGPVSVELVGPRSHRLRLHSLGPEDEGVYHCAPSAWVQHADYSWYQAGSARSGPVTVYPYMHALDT
The experiment in a line: ELISA on IGSF8 extracellular domain. On the technique in general: ELISA stands for enzyme-linked immunosorbent assay.

Experiment [2] has as its target T2, D1 domain of IGSF8 (recombinant protein) (human, UniProt Q969P0 28-149, limits assumed).
T2 construct: domain: D1 (Ig V-set domain); also called Ig V-set domain of IGSF8
T2 sequence (looked up): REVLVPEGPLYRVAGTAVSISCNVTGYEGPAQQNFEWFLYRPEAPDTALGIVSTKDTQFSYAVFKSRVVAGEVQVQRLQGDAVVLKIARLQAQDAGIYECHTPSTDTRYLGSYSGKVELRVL
Kind of experiment: SPR, Biacore T100. Background: In SPR one partner is held on a chip, and binding of the other changes the refractive index at the surface.

In experiment [3] the target is T3, full-length IGSF8 (recombinant antigen of the SPR screen; IGSF8 target antigen of the phage panning) (human, UniProt Q969P0 28-579, limits assumed).
T3 sequence (looked up): T1 sequence
Kind of experiment: SPR, Biacore T100.

B1: Antibody C2 (antibody, V domains shown)
VH: EVQLLQSGGGLVQPGGSLRLSCAASGFTFSSYPMNWVRQAPGKGLEWVSRISRSGGRTSYADSVKGRFTISRDNSKNTLYLQMNSLRAEDTAVYYCARDATRRHYNGMDVWGKGTTVTVSS
VL: DVVMTQSPATLSLSPGERASLSCRASRSVGKYLAWYQQKPGQAPRLLFYYASLRAGDIPSRFTASGSGTDFTLTISRLEPEDFAVYYCQQYGSSPRTFGQGTKLEMKR
notes: also called anti-IGSF8 C2
On to B1, for which the binding result in experiment [1] is on record as “binds”.

B2: Antibody C3 (antibody, V domains shown)
VH: B1 VH with E1Q, L5V, Q6E, S31H, N35R, R50S, S52R, S59K, R102G
VL: DVVMTQSPSSLSASVGDRVTITCRTSQVIGTSLNWYQQKPGRAPRLLIYSASNLQSGVPSRFSGSGHGTQFTLTISSLQPEDFATYSCQQSSRVPHTFGQGTKLEMRR
notes: also called anti-IGSF8 C3
Regarding B2, the binding result in experiment [1] is “binds”.

B3: Antibody C7 (antibody, V domains shown)
VH: B1 VH with L5E, Q6E
VL: B1 VL with D1E, V2T, V3T, M4L
notes: also called anti-IGSF8 C7
Consider B3, for which the binding result in experiment [1] is recorded as “binds”.

B4: Antibody C8 (antibody, V domains shown)
VH: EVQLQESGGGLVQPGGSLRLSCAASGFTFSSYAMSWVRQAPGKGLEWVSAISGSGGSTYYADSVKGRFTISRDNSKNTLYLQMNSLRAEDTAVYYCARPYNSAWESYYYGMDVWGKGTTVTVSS
VL: DIQMTQSPSSVSASVGDRVTITCRASQGISSRLAWYQQKPGKAPKLLIYAASSLQSGVPSRFSGSGSGTDFTLTISSLQPEDFATYYCQQRHSYPITFGQGTRLEIKR
notes: also called anti-IGSF8 C8
For the molecule B4, in experiment [1], the binding result is recorded as “binds”.

B5: Antibody C6 (antibody, V domains shown)
VH: EVQLVESGGGLVQPGGSLRLSCAASGFTFSPYRMHWVRQAPGKGLEWVSRINPSGGRTWYADSVKGRFTISRDNSKNTLYLQMNSLRAEDTAVYYCARDATGRHYNGMDVWGQGTMVTVSS
VL: DIQMTQSPSTLSASVGDRVTITCRASQSINKWLAWYQQKPGKAPKLLIYKASTLESGVPSRFSGSGSGTDFTLTINSLQPEDFATYYCQQSHSAPWTFGQGTKVEIER
notes: also called anti-IGSF8 C6
Take B5: the binding result in experiment [1] is recorded as “binds”.

B6: Antibody C34 (1D7) (antibody, V domains shown)
VH: EVQLLESGGGLVQPGGSLRLSCAVSGFTFNSFAMSWVRQAPGKGLEWVSAISGSGGGTYYADSVKGRFTISRDNSKNTLYLQMNSLRAEDTAIYYCAREVDGYGAFDIWGQGTMVTVSS
VL: DIQMTQSPSSLSASVGNRVTITCRASQTIRNYLNWYQQKPGEAPKVLIYGASTLQSGVPSRFSASGSGTDFTLTISSLQPDDFATYHCQQTFSDPYTFGQGTKVEIK
notes: also called mAb-1D7 (C34)
A word on the Kd: it is a measure of binding affinity in units of concentration. With B6, the Kd in experiment [2] was less than 50 nM; in experiment [3], 2.12 nM.

B7: Antibody C5 (antibody, V domains shown)
VH: EVQLVQSGGGLVQPGGSLRLSCAASGFTFSRYRMAWVRQAPGKGLEWVSNITRSGGVTRYADSVKGRFTISRDNSKNTLYLQMNSLRAEDTAVYYCARDPNRVTAISSHYGMDVWGKGTTVTVSS
VL: EIVLTQSPSTLSASVGDRVTISCRASQSISRWLAWYQQKPGQAPRLLIYDASNRATGVPARFSVSGSETDSTLTISSLEPEDFAMYYCQQRSNWPPMYTFGQGTKLEIKR
notes: also called anti-IGSF8 C5
Consider B7, for which the binding result in experiment [1] is recorded as “binds”.

B8: Antibody C12 (antibody, V domains shown)
VH: EVQLVESGGGLVQPGGSLRLSCAASGFTFSKYKMSWVRQAPGKGLEWVSTIAPSGGGTRYADSVKGRFTISRDNSKNTLYLQMNSLRAEDTAVYYCARGGHFSNPWGQGTLVTVSS
VL: DVVMTQSPLSLPVTLGQPASISCRSSQSLVHTDGDTYLNWYQQRPGQSPRRLIYKVSKRDSGVPDRFSGSGSGTDFTLKISRVEAEDVGVYYCMQGIKRPYTLGQGTKLEIKR
notes: also called anti-IGSF8 C12
Take B8: the binding result in experiment [1] is listed as “binds”.

B9: Antibody C11 (antibody, V domains shown)
VH: EVQLVESGGGLVQPGGSLRLSCAASGFTFSRYRMYWVRQAPGKGLEWVSSISSSGGRTKYADSVKGRFTISRDNSKNTLYLQMNSLRAEDTAVYYCARGVRYCSSPSCSRGPRYAMDVWGKGTTVTVSS
VL: DIQMTQSPSSLSASVGDRVTITCRASYVIRNDLSWYQQKPGKAPKLLIYGTSSLHNGVPSRFSGSGYGTYFTLTISSLQPEDFGTYYCLQDDKYPLTFGGGTKVEIKR
notes: also called anti-IGSF8 C11
Take B9: the binding result in experiment [1] is “binds”.

B10: Antibody C9 (antibody, V domains shown)
VH: B9 VH with R33D, Y35S, S50R, S52R, S53Y, K59G
VL: DVVMTQSPATLSLSPGEGATLSCRASQSVRGYLAWYQQKPGQAPRLLIYDTFKRATGIPARFSGSGSGADFTLTISSLEPEDSAVYYCQQYFASPWTFGQGTKVEIKR
notes: also called anti-IGSF8 C9
Turning to B10, the binding result in experiment [1] is recorded as “binds”.

B11: Antibody C4 (antibody, V domains shown)
VH: B9 VH with E1Q, V5L, E6Q, Y35G, S52A, S53R, K59Y
VL: B4 VL with D1E, Q3V, R32W, R91A, H92N, Y94F
notes: also called anti-IGSF8 C4
Take B11: in experiment [1], the binding result is on record as “binds”.

B12: Antibody C35 (1B1) (antibody, V domains shown)
VH: EVQLLESGGGLVQPGGSLRLSCAVSGFTFNSFAMSWVRQAPGKGLEWVSAISGSGGGTYYADSVKGRFTISRDNSKNTLYLQMNSLRAEDTAVYYCAREGWEVRTPGYFDYWGQGTLVTVSS
VL: DVVMTQSPSSLSASVGDRVTITCRASHRIFSYLTWYHQKPGKAPNLLISGASSLGAGVPSRFSGSGSGTDFTLTISSLQPEDFGTYYCQQSFSDPYTFGQGTKLEIKR
notes: also called mAb-1B1 (C35)
B12: the Kd in experiment [2] is less than 50 nM; in experiment [3], 2.06 nM.

B13: Antibody C39 (8G4) (antibody, V domains shown)
VH: EVQLLESGGGLVQPGGSLRLSCAASGFTFSSYAMSWVRQAPGKGLEWVSGITGSGGSTYYADSVKGRFTISRDNSKNTLYLQMNSLRAEDTAVYYCARSRNLDSWGQGTLVTVSS
VL: DIQLTQSPSSLSASVGDRVTITCRASQSIHNYLNWIQQTPGKAPKLLVFAASTLQRGVPPRYSGRGSGTEFTLTISSLQPEDFATYYCQQSYTTPLTFGGGTKVEIR
notes: also called mab-8G4 (C39)
Take B13: the Kd in experiment [2] was less than 50 nM.
